The text below walks through data of article PMC4252739 (Cell host & microbe, 2014).

The series deals with the molecule itself. Description: cryo-EM imaging.

B1: MBP-MxB (full-length WT MxB tagged with maltose-binding protein) (natural protein, UniProt P20592 1-715, looked up)
chain: MSKAHKPWPYRRRSQFSSRKYLKKEMNSFQQQPPPFGTVPPQMMFPPNWQGAEKDAAFLAKDFNFLTLNNQPPPGNRSQPRAMGPENNLYSQYEQKVRPCIDLIDSLRALGVEQDLALPAIAVIGDQSSGKSSVLEALSGVALPRGSGIVTRCPLVLKLKKQPCEAWAGRISYRNTELELQDPGQVEKEIHKAQNVMAGNGRGISHELISLEITSPEVPDLTIIDLPGITRVAVDNQPRDIGLQIKALIKKYIQRQQTINLVVVPCNVDIATTEALSMAHEVDPEGDRTIGILTKPDLMDRGTEKSVMNVVRNLTYPLKKGYMIVKCRGQQEITNRLSLAEATKKEITFFQTHPYFRVLLEEGSATVPRLAERLTTELIMHIQKSLPLLEGQIRESHQKATEELRRCGADIPSQEADKMFFLIEKIKMFNQDIEKLVEGEEVVRENETRLYNKIREDFKNWVGILATNTQKVKNIIHEEVEKYEKQYRGKELLGFVNYKTFEIIVHQYIQQLVEPALSMLQKAMEIIQQAFINVAKKHFGEFFNLNQTVQSTIEDIKVKHTAKAENMIQLQFRMEQMVFCQDQIYSVVLKKVREEIFNPLGTPSQNMKLNSHFPSNESSVSSFTEIGIHLNAYFLETSKRLANQIPFIIQYFMLRENGDSLQKAMMQILQEKNRYSWLLQEQSETATKRRILKERIYRLTQARHALCQFSSKEIH
As for B1, the binding result is “binds”.
